The assay deals with CD16 receptor on Jurkat-hCD16aF cells (human) (UniProt P08637). The assay is described as follows: cell-based or functional assay.
Sequence of CD16 receptor on Jurkat-hCD16aF cells (human) (P08637 17-254): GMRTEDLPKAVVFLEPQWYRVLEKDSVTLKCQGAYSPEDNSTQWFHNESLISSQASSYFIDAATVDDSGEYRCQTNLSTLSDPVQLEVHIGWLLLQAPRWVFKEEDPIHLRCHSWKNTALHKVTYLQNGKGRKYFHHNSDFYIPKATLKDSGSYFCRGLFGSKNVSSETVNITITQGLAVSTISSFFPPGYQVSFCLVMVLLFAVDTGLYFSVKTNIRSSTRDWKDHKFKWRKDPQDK

Take “Anti-PDL1|durvalumab|Fc-WT (CHOs) (from UniProt P01857 1-330) (antibody)”: the quantity of antibody required to induce 1000 pg of IL-2 from Jurkat-hCD16aF cells with PD-L1 aAPC/CHO-K1 target cells (ng per 1000 pg of IL-2) was > 1250. For the substance “Anti-PDL1|atezolizumab|Fc-WT (CHOs) (from UniProt P01857 1-330) (antibody)”, the quantity of antibody required to induce 1000 pg of IL-2 from Jurkat-hCD16aF cells with PD-L1 aAPC/CHO-K1 target cells (ng per 1000 pg of IL-2) was > 1250.

The values are drawn from US20200087394A1.
